Results published in US20150313988.

T1: RLRGG-AMC, C-terminal peptide motif of Ub and ISG15 coupled to aminomethylcoumarin
T1 chain: RLRGG

B1: EAV PLP2 domain (residues 261-392 of EAV pp1a) carrying a C-terminal HIS6 purification tag, wild-type (protein)
chain: GYNPPGDGACGYRCLAFMNGATVVSAGCSSDLWCDDELAYRVFQLSPTFTVTIPGGRVCPNAKYAMICDKQHWRVKRAKGVGLCLDESCFRGICNCQRMSGPPPAPVSAAVLDHILEAATFGNVRVVTPEGQ
B2: EAV PLP2 domain I353R mutant enzyme (protein)
chain: GYNPPGDGACGYRCLAFMNGATVVSAGCSSDLWCDDELAYRVFQLSPTFTVTIPGGRVCPNAKYAMICDKQHWRVKRAKGVGLCLDESCFRGRCNCQRMSGPPPAPVSAAVLDHILEAATFGNVRVVTPEGQ
B3: EAV nsp2-3 polyprotein with N-terminal HA tag, PLP2 mutant I353R (protein)
chain: GYNPPGDGACGYRCLAFMNGATVVSAGCSSDLWCDDELAYRVFQLSPTFTVTIPGGRVCPNAKYAMICDKQHWRVKRAKGVGLCLDESCFRGRCNCQRMSGPPPAPVSAAVLDHILEAATFGNVRVVTPEGQPRPVPAPRVRPSANSSGDVKDPAPVPPVPKPRTKLATPNPTQAPIPAPRTRLQGASTQEPLASAGVASDSAPKWRVAKTVYSSAERFRTELVQRARSVGDVLVQALPLKTPAVQRYTMTLKMMRSRFSWHCDVWYPLAVIACLLPIWPSLALLLSFAIGLIPSVGNNVVLTALLVSSANYVASMDHQCEGAACLALLEEEHYYRAVRWRPITGALSLVLNLLGQVGYVARSTFDAAYVPCTVFDLCSFAILYLCRNRCWRCFGRCVRVGPATHVLGSTGQRVSKLALIDLCDHFSKPTIDVVGMATGWSGCYTGTAAMERQCASTVDPHSFDQKKAGATVYLTPPVNSGSALQCLNVMWKRPIGSTVLGEQTGAVVTAVKSISFSPPCCVSTTLPTRPGVTVVDHALYNRLTASGVDPALLRVGQGDFLKLNPGFRLIGGWIYGICYFVLVVVSTFTCLPIKCGIGTRDPFCRRVFSVPVTKTQEHCHAGMCASAEGISLDSLGLTQLQSYWIAAVTSGLVILLVCHRLAISALDLLTLASPLVLLVFPWASVGLLLACSLAGAAVKIQLLATLFVNLFFPQATLVTMGYWACVAALAVYSLMGLRVKVNVPMCVTPAHFLLLARSAGQSREQMLRVSAAAPTNSLLGVARDCYVTGTTRLYIPKEGGMVFE
B4: EAV nsp2-3 polyprotein with N-terminal HA tag, PLP2 mutant T312A (protein)
chain: GYNPPGDGACGYRCLAFMNGATVVSAGCSSDLWCDDELAYRVFQLSPTFTVAIPGGRVCPNAKYAMICDKQHWRVKRAKGVGLCLDESCFRGICNCQRMSGPPPAPVSAAVLDHILEAATFGNVRVVTPEGQPRPVPAPRVRPSANSSGDVKDPAPVPPVPKPRTKLATPNPTQAPIPAPRTRLQGASTQEPLASAGVASDSAPKWRVAKTVYSSAERFRTELVQRARSVGDVLVQALPLKTPAVQRYTMTLKMMRSRFSWHCDVWYPLAVIACLLPIWPSLALLLSFAIGLIPSVGNNVVLTALLVSSANYVASMDHQCEGAACLALLEEEHYYRAVRWRPITGALSLVLNLLGQVGYVARSTFDAAYVPCTVFDLCSFAILYLCRNRCWRCFGRCVRVGPATHVLGSTGQRVSKLALIDLCDHFSKPTIDVVGMATGWSGCYTGTAAMERQCASTVDPHSFDQKKAGATVYLTPPVNSGSALQCLNVMWKRPIGSTVLGEQTGAVVTAVKSISFSPPCCVSTTLPTRPGVTVVDHALYNRLTASGVDPALLRVGQGDFLKLNPGFRLIGGWIYGICYFVLVVVSTFTCLPIKCGIGTRDPFCRRVFSVPVTKTQEHCHAGMCASAEGISLDSLGLTQLQSYWIAAVTSGLVILLVCHRLAISALDLLTLASPLVLLVFPWASVGLLLACSLAGAAVKIQLLATLFVNLFFPQATLVTMGYWACVAALAVYSLMGLRVKVNVPMCVTPAHFLLLARSAGQSREQMLRVSAAAPTNSLLGVARDCYVTGTTRLYIPKEGGMVFE

Key:
[1] = target: T1, RLRGG-AMC, C-terminal peptide motif of …
[2] = target: ubiquitin-aminomethylcoumarin, P0CG47
Sequence of ubiquitin-aminomethylcoumarin, P0CG47 (P0CG47 whole entry, looked up): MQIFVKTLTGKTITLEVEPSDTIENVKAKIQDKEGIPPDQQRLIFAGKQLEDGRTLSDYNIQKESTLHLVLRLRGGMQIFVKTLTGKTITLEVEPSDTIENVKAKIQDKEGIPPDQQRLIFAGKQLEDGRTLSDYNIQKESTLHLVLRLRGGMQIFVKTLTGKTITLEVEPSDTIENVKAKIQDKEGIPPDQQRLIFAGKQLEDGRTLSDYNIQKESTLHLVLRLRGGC

[3] = target: FLAG-tagged ubiquitin, P0CG47
Sequence of FLAG-tagged ubiquitin, P0CG47 (P0CG47 whole entry, looked up): as above

Protein	kcat/KM [1] [M⁻¹ s⁻¹]	kcat/KM [2] [M⁻¹ s⁻¹]	kcat/KM relative to wild type [2]	density of the alpha-flag lane (remaining ubiquitin conjugates) [3]
B1	48 ± 8	21000 ± 2000		
B2	71 ± 8	1100 ± 100	the kcat/KM value for Ub-AMC of the mutant I353R is 20 times lower than that of the wild-type virus	
B3				shows a density of the alpha-flag lane that is about twice as high as that of the T312A lane
B4				a mutant such as T312A already shows a level of DUB-activity that leads to a significantly denser alpha-flag lane, which represents the amount of remaining ubiquitin conjugates, than that of the wild-type virus
